Test results taken from US9273364B2 (Kyoto University, priority 2010, dated 2016).

Columns and labels:
[1] = test system: mouse FGFR2 exon 9 RNA probe (U1 and U2 snRNA binding); assay: In vitro exon-recognition assay, exon 9 probe; format: biochemical; conditions: HeLa nuclear extract, UV crosslinking
Procedure: (§1) A mutated DNA template of 3′ ss in intron 8 and 5′ ss in intron 9 was prepared from mutated reporter vectors as shown in FIG. 3A. The RNA substrates were labeled with ^32P by in vitro T7 transcription. In vitro splicing reaction and UV cross linking were performed under the conditions described by Sawa [Sawa H, Shimura Y (1992) Genes Dev 6: 244-254.]. To identify the shifted bands by UV cross linking, pre-heated cDNA oligo (10 microgram/mL) for U1 (5′-[…]-3′/SEQ ID NO:38) or U2 (5′-[…]-3′/SEQ ID NO:39) was added to the RNAs after UV cross linking, and the U1 or U2 cDNA oligo/RNAs mixture were digested with 50 U/mL of RNase H at 30 degrees C. for 10 min. In FIG. 5C, highly purified Flag-Fox2 and Flag-ESRP1 were added to RNAs and incubated at room temperature for 5 min before splicing reaction to examine their inhibitory or activating effects on exon recognition of U1 snRNA or U2 snRNA. After these reactions, RNAs were subjected to denaturing PAGE analysis and autoradiography.
(§2) Next, the present inventors tested whether Fox and/or ESRP cause switching from exon 9 to exon 8 through interruption of exon 9 recognition. The present inventors examined this under the in vitro splicing conditions using ^32P-labeled RNA probe of exon 9 with introns containing UGCAUG and ISE/ISS-3 sites (FIG. 10C, top panel) and the exon 8 RNA probe of same stretches. […]

[2] = test system: mouse FGFR2 exon 8 RNA probe (U1 snRNA binding); assay: In vitro exon-recognition assay, exon 8 probe; format: biochemical; conditions: HeLa nuclear extract, UV crosslinking
Procedure: as §1, §2

shifted bands by U1 and U2 snRNA [1]: decreased
suppressive or activating effect on exon recognition [2]: not obvious
B1: ESRP1 protein: highly purified recombinant Flag-ESRP1 added to RNAs before splicing reaction (protein, UniProt Q6NXG1 1-681, looked up)
Epithelial splicing …: MTASPDYLVVLFGITAGATGAKLGSDEKELILLFWKVVDLANKKVGQLHEVLVRPDQLELTEDCKEETKIDVESLSSASQLDQALRQFNQSVSNELNIGVGTSFCLCTDGQLHVRQILHPEASKKNVLLPECFYSFFDLRKEFKKCCPGSPDIDKLDVATMTEYLNFEKSSSVSRYGASQVEDMGNIILAMISEPYNHRFSDPERVNYKFESGTCSKMELIDDNTVVRARGLPWQSSDQDIARFFKGLNIAKGGAALCLNAQGRRNGEALVRFVSEEHRDLALQRHKHHMGTRYIEVYKATGEDFLKIAGGTSNEVAQFLSKENQVIVRMRGLPFTATAEEVVAFFGQHCPITGGKEGILFVTYPDGRPTGDAFVLFACEEYAQNALRKHKDLLGKRYIELFRSTAAEVQQVLNRFSSAPLIPLPTPPIIPVLPQQFVPPTNVRDCIRLRGLPYAATIEDILDFLGEFATDIRTHGVHMVLNHQGRPSGDAFIQMKSADRAFMAAQKCHKKNMKDRYVEVFQCSAEEMNFVLMGGTLNRNGLSPPPCKLPCLSPPSYTFPAPAAVIPTEAAIYQPSVILNPRALQPSTAYYPAGTQLFMNYTAYYPSPPGSPNSLGYFPTAANLSGVPPQPGTVVRMQGLAYNTGVKEILNFFQGYQYATEDGLIHTNDQARTLPKEWVCI
modifications: Flag tag
